From paper PMC7293249 (Nature Communications, 2020)
Changes are numbered by the printed parent chain. Numbers in names are those of the source. Values belong to the binder of their own block, whether it stands above or below them.

Columns and labels:
[1] = target: T1, monkey activated protein C (Macaca sp. (monkey plasma, species not …, UniProt A0A1D5QSH6)); assay: cell-based or functional assay
human FVIIa = human FVIIa (Homo sapiens, UniProt P08709); assay: ELISA; data not shown; human FIIa, FVIIa, FIXa, FXa, FXIa, FXIIa coated directly on Maxisorp plates at 5–10 µg/mL; anti-APC antibodies at 20 nM; conditions: both partners purified
human FIXa = human FIXa (Homo sapiens, UniProt P00740); assay: as above; conditions: both partners purified
human FXa = human FXa (Homo sapiens, UniProt P00742); assay: as above; conditions: both partners purified
human FXIa = human FXIa (Homo sapiens, UniProt P03951); assay: as above; conditions: both partners purified
human FXIIa = human FXIIa (Homo sapiens, UniProt P00748); assay: as above; conditions: both partners purified
human FIIa = target: T2, human FIIa (Homo sapiens, UniProt P00734); assay: as above; conditions: both partners purified
T2 construct: human FIIa (thrombin), light chain; human FIIa (thrombin), heavy (catalytic) chain; also called thrombin

[2] = target: T1, monkey activated protein C; assay: ELISA; data not shown; species cross-reactivity; species' APC or PC coated directly on Maxisorp plates at 100 ng/well in PBS/Ca2+; antibodies titrated; conditions: both partners purified
[3] = target: T3, rabbit activated protein C (Oryctolagus cuniculus, UniProt Q28661); assay: as above; conditions: both partners purified
T3 construct: also called rabbit APC

dog activated protein C = target: T4, dog activated protein C (Canis lupus familiaris, UniProt Q28278); assay: as above; conditions: both partners purified
T4 construct: also called dog APC

[4] = target: T5, plasma-derived hAPC-Gla-domainless (APC-GD) (Homo sapiens, UniProt P04070); assay: ELISA; APC-binding ELISA of the purified Fabs on human APC and Gla-domainless APC; format not told; conditions: both partners purified
T5 construct: also called APC (in the crystal structures); source: bought: plasma-derived, Enzyme Research Laboratories

[5] = target: T6, human activated protein C (Homo sapiens); assay: cell-based or functional assay
T6 chain 1: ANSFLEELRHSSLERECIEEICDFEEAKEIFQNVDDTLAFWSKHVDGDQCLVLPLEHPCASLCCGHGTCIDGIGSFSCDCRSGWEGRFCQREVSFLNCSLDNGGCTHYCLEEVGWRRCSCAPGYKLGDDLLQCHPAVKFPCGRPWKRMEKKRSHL
T6 chain 2: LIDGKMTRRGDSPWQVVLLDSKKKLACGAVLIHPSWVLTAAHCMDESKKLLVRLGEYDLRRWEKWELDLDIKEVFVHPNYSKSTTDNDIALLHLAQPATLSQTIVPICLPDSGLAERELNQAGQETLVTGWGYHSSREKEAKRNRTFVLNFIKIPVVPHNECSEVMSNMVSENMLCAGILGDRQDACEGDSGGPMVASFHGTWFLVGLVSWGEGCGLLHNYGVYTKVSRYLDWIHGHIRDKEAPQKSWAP

[6] = target: T7, Phe–Pro–Arg–chloromethylketone active-site-blocked APC (PPACK-hAPC) (Homo sapiens, UniProt P04070, active site blocked by Phe–Pro–Arg–chloromethylketone (PPACK)); assay: ELISA; PPACK-hAPC or hAPC coated onto a MaxiSorp plate at 100 ng per well overnight; IgG or Fab at concentrations starting at 20 nM; conditions: both partners purified
T7 construct: also called PPACK-APC

[7] = target: T6, human activated protein C; assay: ELISA; hAPC or hPC coated directly on Maxisorp plates at 100 ng/well in PBS/Ca2+; antibodies titrated, 1 h at RT; detection with HRP anti-human Fc; conditions: both partners purified
[8] = target: T8, monkey protein C (zymogen) (Macaca sp. (monkey plasma, species not …, UniProt A0A1D5QSH6)); assay: ELISA; data not shown; species cross-reactivity; species' APC or PC coated directly on Maxisorp plates at 100 ng/well in PBS/Ca2+; antibodies titrated; conditions: both partners purified
T8 construct: monkey protein C zymogen, light chain; also called monkey PC

[9] = target: T6, human activated protein C; assay: SPR; Biacore T200, 25 °C, HBS-P+ (10 mM HEPES pH 7.4, 150 mM NaCl, 0.05% P20) with 1 mg/mL BSA; mAbs captured by immobilised mouse anti-human Fc antibody on CM5; hAPC injected at 1.56-200 nM, hPC at 1.56-1000 nM; 1:1 Langmuir fit; conditions: both partners purified
[10] = target: T9, human protein C (zymogen) (Homo sapiens, UniProt P04070); assay: as above; conditions: both partners purified
T9 construct: human protein C zymogen, light chain; also called hPC; PC; source: bought: plasma-derived, Enzyme Research Laboratories

B2: C25K23Fab (type I Fab, TTP-2781) (Fab, V domains shown)
VH: EVQLLESGGGLVQPGGSLRLSCAASGFTFSSYWMSWVRQAPGKGLEWVSGVSWNGSRTHYADSVKGRFTISRDNSKNTLYLQMNSLRAEDTAVYYCALTGRSGWMRFPNWFDPWGQGTLVTVTS
VL: QSVLTQPPSASGTPGQRVTISCTGSSSNIGAAYDVHWYQQLPGTAPKLLIYGNNKRPSGVPDRFSGSKSGTSASLAISGLRSEDEADYYCQSYDSSLSGSVFGGGTKLTVL
notes: Parent of TPP-2312; also called type I (C25K23) Fab; source: E. coli, purified (Protein A chromatography)
EC50 [4]: 2 to 4 nM

B4: hu1573Fab (type II Fab, TPP-5040) (Fab, V domains shown)
VH: EVQLVESGGGLVQPGGSLRLSCAASGFTFSNYYLNWVRQAPGKGLEWVGDIRLKSNNYEKHYAESVKGRFTISRDDSKNSLYLQMNSLKTEDTAVYYCAREGDYFDYWGQGTLVTVSS
VL: DIVLTQSPASLAVSPGQRATITCKASESVDSFGATFMHWYQQKPGQPPKLLIYLASNLESGVPARFSGSGSGTDFTLTINPVEADDTANYYCQQNNEDPYTFGQGTKLEIK
notes: Humanized Fab of mouse HAPC1573; also called h1573Fab; type II (h1573) Fab; source: QMCF cells (CHO-based), transiently transfected (pTT5), purified from conditioned medium (KappaSelect, SEC)
binding result [6]: binds

Other lines, results leading:

Protac-aPTT in FVIII-antibody-induced hemophilia A monkey plasma, inhibition of APC anticoagulant activity, IC50 [1]: 9.3 nM | binding result (human FVIIa): no binding (tested: 20 nM) | binding result (human FIXa): no binding (tested: 20 nM) | binding result (human FXa): no binding (tested: 20 nM) | binding result (human FXIa): no binding (tested: 20 nM) | binding result (human FXIIa): no binding (tested: 20 nM) | binding result (human FIIa): no binding (tested: 20 nM) | EC50 [2]: ~1 nM | EC50 [3]: ~1 nM | EC50 (dog activated protein C): ~1 nM
B1: type I anti-APC mAb TPP-2312 (BAY1316786) (antibody, V domains shown)
VH: B2 VH with S56A, T123S
VL: B2 VL with A10V, T13A, S78T, R81Q, S82A
notes: variable region as the heavy chain of C25K23 with S56A in CDR2, joined to the hIgG2 constant region (CH1-CH2-CH3); as the light chain of C25K23 with K55R in CDR2; hIgG2; Candidate C25K23 was germlined and optimized to become TPP-2312; also called type I mAb; source: HEK293-6E, transiently co-transfected (pTT5), purified (protein A, SEC)

Protac-aPTT in FVIII-antibody-induced hemophilia A monkey plasma, inhibition of APC anticoagulant activity, IC50 [1]: 19.3 nM | Protac-aPTT in FVIII-antibody-treated normal human plasma, IC50 [5]: 12 nM | Protac-aPTT in hemophilia A plasma, inhibition of APC activity, IC50 [5]: 11.6 nM | Protac-aPTT in normal human plasma, inhibition of APC anticoagulant activity, IC50 [5]: ~7 nM | binding result [6]: binds | binding result (human FVIIa): no binding (tested: 20 nM) | binding result (human FIXa): no binding (tested: 20 nM) | binding result (human FXa): no binding (tested: 20 nM) | binding result (human FXIa): no binding (tested: 20 nM) | binding result (human FXIIa): no binding (tested: 20 nM) | binding result (human FIIa): no binding (tested: 20 nM) | EC50 [7]: 0.8 nM | EC50 [2]: ~1 nM | binding result [3]: no binding | binding result (dog activated protein C): no binding | binding result [8]: no binding | Kd [9]: 10 nM | binding result [10]: no binding (tested: 1000 nM)
B3: type II anti-APC mAb TPP-4885 (BAY1896502) (antibody, V domains shown)
VH: B4 VH
VL: B4 VL
notes: humanized/optimized from mouse HAPC1573; variable region from the Fab joined to the hIgG2 constant region (CH1-CH2-CH3); humanized/optimized from mouse HAPC1573 (kappa); hIgG2; Derived from HAPC1573 (mIgG1/k) by humanization and optimization; also called type II mAb; BAY 1896052; source: HEK293-6E, transiently co-transfected (pTT5), purified (protein A, SEC)
